{
  "source": "paper doi:10.1101/2025.11.17.688760",
  "tested_on": "P68135",
  "test": "TIRF microscopy of single actin filaments",
  "conditions": "other: TIRF microscopy of single actin filaments (depolymerization)",
  "data": [
    {"substance": "alpha skeletal actin from rabbit muscle", "values": [
      {"measurement": "barbed end depolymerization rate (effective off-rate of ADP and ADP.Pi subunits)", "result": "3.4 ± 0.7 sub/s (mean ± SD)"}
    ]}
  ]
}
